{"source": "patent US20190177415A1", "about": "(PIERRE FABRE MEDICAMENT, published 2019)", "binders": {"B1": {"name": "murine monoclonal antibody 5B (antibody, V domains shown)", "VH": "QVQLQQSGAELVRPGVSVKISCKGSGYTFTDYGMHWVKQSHAKSLEWIGIIDTYYGDATYNQKFKGKATMTVDKSSSTAYMELARLTSEDSAIYYCARRAGNAMDYWGQGTSVTVSS", "VL": "NIVMTQTPKFLLVSAGDRVTITCKASQSVSNDVAWYQQKPGQSPKLLIYYASNRYTGVPDRFTGSGYGTDFTFTISTVQAEDLAVYFCQQDYSSPRTFGGGTKLEIK", "notes": "Mouse hybridoma antibody"}, "B2": {"name": "murine monoclonal antibody 128A (antibody, V domains shown)", "VH": "B1 VH with I50L, Q62H, S77R, V115A", "VL": "B1 VL with V3A, V33I, K45R", "notes": "Mouse hybridoma antibody"}, "B3": {"name": "murine monoclonal antibody 208A (antibody, V domains shown)", "VH": "B1 VH with I50V, T59G", "VL": "B1 VL with N1S", "notes": "Mouse hybridoma antibody"}, "B4": {"name": "murine monoclonal antibody 353A (antibody, V domains shown)", "VH": "EVKLLESGGGLVQPGGSLKLSCAASGFDFSRYWMNWVRQAPGKGLEWIGEINPDSSTINYTPSLKDKFIISRDNAKNTLYLQMSKVRYEDTALYYCARPGEIYYYGSYWFAYWGQGTLVTVSA", "VL": "DIVLTQSPASLAVSLGQRATISCRASESVEYYGTSLMQWFQQKPGQPPKLLIYAASNVESRVPARFSGSGSGTDFSLNIHPVEEDDIAMYFCQQSRKDPWTFGGGTKLEIK", "notes": "Mouse hybridoma antibody"}, "B5": {"name": "murine monoclonal antibody 141A (antibody, V domains shown)", "VH": "QVQLQQSGAELMKPGASVKISCKATGYTFSRYWIEWVKQRPGHGLEWIGEILPGSGSTNYNEKFKGKATFTADTSSNTAYMQLSSLTSEDSAVYYCAGEEVYDGYPWFGYWGQGTLVTVSA", "VL": "QIVLSQSPAILSASPGEKVTMTCRASSSLSYMHWYQQKPGSSPKPWIYATSNLASGVPARFSGSGSGTSYSLTISRVEAEDAATYYCQQWSSNPYTFGGGTKLEIK", "notes": "Mouse hybridoma antibody"}, "B6": {"name": "murine monoclonal antibody 230A (antibody, V domains shown)", "VH": "EVQLQQSGPELEKPGASVKISCKASGYSFTGSNMNWVKQNNGKSLEWIGNIDPYYGYTTYNQKFKGKATLTVDKSSSTAYMQLKSLTSEDSAVYYCARDYDYALGYFDVWGAGTTVTVSS", "VL": "DVVMTQTPLSLPVSLGDQASISCRSSQSLVHSNGNTYLHWYLQKPGQSPKLLIYKVSNRFSGVPDRFSGSGSGTDFTLKISRVEAEDLGVYFCSQSTHVPYTFGGGTKLEIK", "notes": "Mouse hybridoma antibody"}, "B7": {"name": "murine monoclonal antibody 76E1 (antibody, V domains shown)", "VH": "EVQLLQSGPELEKPGASVKISCKASGYSFTGYNMNWVKQSNGKSLEWIGNIDPYYDYTSYNLKFKDKATLTVDKSSSTAYMQLKSLTSEDSAVYYCATSTMITPFDYWGQGTTLTVSS", "VL": "B6 VL with V3L, L29I, H39E, S81N, F92Y, S94F, S96G, T97S, Y101W", "notes": "Mouse hybridoma antibody"}, "B8": {"name": "murine monoclonal antibody 321D (antibody, V domains shown)", "VH": "QVQLQQSGAELMKPGAAVKISCKATGYTFSSHWIEWVKQRPGHGLEWIGEILPGSGSTDYNEKFKGKATFTADTSSNTAYMQLSSLTSEDSAVYYCARWLLYYYAMDYWGQGTSVTVSS", "VL": "B6 VL with V3L, L29I, H39E, S81T, F92Y, S94F, S96G, T97S, Y101F", "notes": "Mouse hybridoma antibody"}, "B9": {"name": "murine monoclonal antibody 33A (antibody, V domains shown)", "VH": "B8 VH with A17S, H32Y, D59S, S85G, D107V", "VL": "B6 VL with V3L, L29I, H39E, F92Y, S94F, S96G, T97S", "notes": "Mouse hybridoma antibody"}, "B10": {"name": "murine monoclonal antibody 26A (antibody, V domains shown)", "VH": "EVQLQQSGPELVKPGASMKISCKASGFSFTGYTMNWVKQSHVKNLEWIGLISPYNGGTSYNQKFKGKATLTVDKSSSTAYMELLSLTSEDSAVYYCARRAYGYAMDYWGQGTSVTVSS", "VL": "QIVLTQSPAIMSASPGEKVTMTCSASSSVSYMYWYQQKPGSSPRLLIYDTSNLASGVPLRFSGSGSGTSYSLTISRMEAEDAATYYCQQWSSYPFTFGSGTKLEIK", "notes": "Mouse hybridoma antibody"}, "B11": {"name": "murine monoclonal antibody 175A (antibody, V domains shown)", "VH": "B8 VH with A17S, S31T, D59S", "VL": "B6 VL with V3L, L29I, H39E, V56L, F92Y, S94F, S96G, T97S, V99F", "notes": "Mouse hybridoma antibody"}, "B12": {"name": "murine monoclonal antibody 146C (antibody, V domains shown)", "VH": "B1 VH with I50L, Q62H, S77R, V115A", "VL": "B1 VL with V3A, V33I, K45R", "notes": "Mouse hybridoma antibody"}}, "note": "Substitutions are numbered along the chain they refer to.", "data": [{"molecular_target": "T1, C10orf54 (antigen of the KD values in Table 42) (human, UniProt Q9H7M9 33-311, limits assumed)", "T1 sequence": "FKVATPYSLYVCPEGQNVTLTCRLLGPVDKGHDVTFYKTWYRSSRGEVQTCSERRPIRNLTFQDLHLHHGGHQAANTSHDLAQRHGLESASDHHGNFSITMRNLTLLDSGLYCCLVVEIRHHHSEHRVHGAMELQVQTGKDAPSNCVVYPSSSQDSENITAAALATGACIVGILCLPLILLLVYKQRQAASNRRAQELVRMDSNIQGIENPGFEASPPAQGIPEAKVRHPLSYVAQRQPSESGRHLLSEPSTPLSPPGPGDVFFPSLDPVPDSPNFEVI", "assay": "method and antigen form not stated", "units": {"Kd": "nM"}, "values": [{"binder": "B1", "Kd": 0.974}, {"binder": "B2", "Kd": 0.635}, {"binder": "B3", "Kd": 2.48}, {"binder": "B4", "Kd": 2.9}, {"binder": "B5", "Kd": 1.27}, {"binder": "B6", "Kd": 1.05}, {"binder": "B7", "Kd": 10.1}, {"binder": "B8", "Kd": 7.26}, {"binder": "B9", "Kd": 6.61}, {"binder": "B10", "Kd": 0.677}]}, {"molecular_target": "T1, C10orf54 (antigen of the KD values in …)", "assay": "method and antigen form not stated; footnote: low affinity antibody", "units": {"Kd": "nM"}, "values": [{"binder": "B11", "Kd": 108}]}, {"molecular_target": "T2, full length cynomolgus monkey C10orf54 (construct CC4) (cynomolgus monkey, UniProt Q9H7M9 33-311 (human entry))", "T2 construct": "also called C10orf54 Construct 4", "T2 chain": "T1 sequence with P6L, L24V, L25F, N145S, V148A, D155E, I205T, P217S, P223L, S251G", "assay": "flow cytometry, transfected 293t cells, 2 ug/ml; stain = MFI >=20-fold over isotype control", "procedure": "(§1) To investigate epitope diversity of the anti-human C10orf54 antibodies, 293t cells were transfected with 1 of 10 different C10orf54 expression constructs that co-express a fluorescent marker. Two days after transfection, cells were stripped from the tissue culture plate, stained with 2 μg/ml anti-human C10orf54 antibody , washed, stained with anti-mouse IgG-Fc Alexa Fluor 647 polyclonal antibody, washed, and stained with the viability dye 4′,6-Diamidino-2-Phenylindole, Dihydrochloride. Upon acquisition of 10,000 live events on a flow cytometer, live cells marked with the fluorescent marker were analyzed for the degree of staining by the anti-human C10orf54 antibody. When the median fluorescence intensity fold-change relative to an isotype control antibody was at least 20-fold, the antibody was considered to stain the C10orf54 expression construct in question.", "values": [{"binder": "B1", "binding result": "binds"}, {"binder": "B2", "binding result": "binds"}, {"binder": "B3", "binding result": "binds"}, {"binder": "B12", "binding result": "binds"}, {"binder": "B4", "binding result": "binds"}, {"binder": "B5", "binding result": "binds"}, {"binder": "B6", "binding result": "binds"}, {"binder": "B7", "binding result": "binds"}, {"binder": "B8", "binding result": "binds"}, {"binder": "B9", "binding result": "binds"}, {"binder": "B11", "binding result": "binds"}, {"binder": "B10", "binding result": "binds"}]}, {"molecular_target": "T3, chimeric C10orf54: human IgV with mouse STALK (construct CC5) (human/mouse chimera)", "T3 construct": "also called C10orf54 Construct 5; hsIGVmmSTALK", "T3 chain": "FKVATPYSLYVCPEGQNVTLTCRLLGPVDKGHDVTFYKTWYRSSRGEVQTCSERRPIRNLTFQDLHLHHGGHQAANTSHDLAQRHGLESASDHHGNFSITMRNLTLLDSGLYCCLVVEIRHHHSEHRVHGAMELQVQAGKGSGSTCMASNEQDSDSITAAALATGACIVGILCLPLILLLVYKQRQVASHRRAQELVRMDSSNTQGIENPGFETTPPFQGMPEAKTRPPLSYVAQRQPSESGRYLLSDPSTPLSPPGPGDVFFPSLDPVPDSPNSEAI", "assay": "flow cytometry, transfected 293t cells, 2 ug/ml; stain = MFI >=20-fold over isotype control", "procedure": "as §1", "values": [{"binder": "B1", "binding result": "binds"}, {"binder": "B2", "binding result": "binds"}, {"binder": "B3", "binding result": "binds"}, {"binder": "B12", "binding result": "binds"}, {"binder": "B4", "binding result": "binds"}, {"binder": "B5", "binding result": "binds"}, {"binder": "B6", "binding result": "binds"}, {"binder": "B7", "binding result": "binds"}, {"binder": "B8", "binding result": "binds"}, {"binder": "B9", "binding result": "binds"}, {"binder": "B11", "binding result": "binds"}, {"binder": "B10", "binding result": "binds"}]}, {"molecular_target": "T4, chimeric C10orf54: first half of IgV mouse and remainder (including loop) human (construct CC8) (human/mouse chimera, UniProt Q9H7M9 33-311)", "T4 construct": "also called C10orf54 Construct 8; mmabChsC10", "T4 chain": "T1 sequence with A4T, V18A, L24I, D29S, F36I, R42L, T50M", "assay": "flow cytometry, transfected 293t cells, 2 ug/ml; stain = MFI >=20-fold over isotype control", "procedure": "as §1", "values": [{"binder": "B1", "binding result": "binds"}, {"binder": "B2", "binding result": "binds"}, {"binder": "B3", "binding result": "binds"}, {"binder": "B12", "binding result": "binds"}, {"binder": "B4", "binding result": "binds"}, {"binder": "B5", "binding result": "binds"}, {"binder": "B6", "binding result": "binds"}, {"binder": "B7", "binding result": "binds"}, {"binder": "B8", "binding result": "binds"}, {"binder": "B9", "binding result": "binds"}, {"binder": "B10", "binding result": "binds"}]}, {"molecular_target": "T5, chimeric C10orf54: human with mouse loop (construct CC9) (human/mouse chimera, UniProt Q9H7M9 33-311)", "T5 construct": "also called C10orf54 Construct 9; hsC10mmLOOP", "T5 chain": "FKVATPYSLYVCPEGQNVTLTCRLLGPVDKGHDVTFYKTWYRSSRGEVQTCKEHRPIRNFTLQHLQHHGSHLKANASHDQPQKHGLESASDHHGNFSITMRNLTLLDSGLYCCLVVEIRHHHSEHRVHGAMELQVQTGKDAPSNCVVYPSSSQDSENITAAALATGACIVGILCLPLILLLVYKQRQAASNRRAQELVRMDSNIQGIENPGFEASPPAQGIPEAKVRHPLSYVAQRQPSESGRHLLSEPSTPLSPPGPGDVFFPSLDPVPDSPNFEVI", "assay": "flow cytometry, transfected 293t cells, 2 ug/ml; stain = MFI >=20-fold over isotype control", "procedure": "as §1", "values": [{"binder": "B4", "binding result": "binds"}, {"binder": "B5", "binding result": "binds"}]}, {"molecular_target": "T6, chimeric C10orf54: mouse with human loop (construct CC10) (human/mouse chimera, UniProt Q9D659 33-308 (mouse entry))", "T6 construct": "also called C10orf54 Construct 10; mmC10hsLOOP", "T6 chain": "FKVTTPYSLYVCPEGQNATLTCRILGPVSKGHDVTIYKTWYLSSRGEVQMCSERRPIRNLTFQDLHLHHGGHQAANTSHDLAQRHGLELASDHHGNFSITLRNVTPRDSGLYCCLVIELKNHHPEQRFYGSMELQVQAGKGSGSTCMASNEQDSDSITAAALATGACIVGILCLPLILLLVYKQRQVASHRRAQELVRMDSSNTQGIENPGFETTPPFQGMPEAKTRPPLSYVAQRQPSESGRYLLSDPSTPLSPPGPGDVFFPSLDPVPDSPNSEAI", "assay": "flow cytometry, transfected 293t cells, 2 ug/ml; stain = MFI >=20-fold over isotype control", "procedure": "as §1", "values": [{"binder": "B1", "binding result": "binds"}, {"binder": "B2", "binding result": "binds"}, {"binder": "B3", "binding result": "binds"}, {"binder": "B12", "binding result": "binds"}, {"binder": "B6", "binding result": "binds"}, {"binder": "B8", "binding result": "binds"}, {"binder": "B9", "binding result": "binds"}, {"binder": "B10", "binding result": "binds"}]}]}
